One may read the pKd as the negative decadic logarithm of the Kd, by convention in mol/L. Low readings indicate a high Kd, high ones a low Kd.

pKd: −log10 of the molar value.

The values below come from patent publication US20080050380A1.

For one assay, the target named is collagen type I. Description: cell-based or functional assay.
Assay [1] concerns the target soluble human GPVI-Fc (the extracellular domain of GPVI fused to Fc) (human) (UniProt Q9HCN6). Kind of assay: 125I-convulxin binding to GPVI-Fc captured on mAb 1P10.2, 10 µg/ml antibody; convulxin is the blocked partner.
For assay [2] the target is unchanged. Kind of assay: ELISA, 5 nM GPVI-Fc with 10 µg/ml antibody on collagen-coated wells; collagen is the blocked partner.
The target of assay [3] is human TANGO 268 (glycoprotein VI, GPVI), full length (human) (UniProt Q9HCN6). Kind of assay: flow cytometry on washed human platelets. For orientation: Flow cytometry measures light scatter and fluorescence of single cells or particles in a stream.
In assay [4] the target is baboon GPVI on baboon platelets (baboon). Description: flow cytometry on washed baboon platelets.
In assay [5] the target is soluble human GPVI-Fc (the extracellular domain of GPVI fused to Fc) (human) (UniProt Q9HCN6). Kind of assay: SPR (BIAcore), GPVI-Fc coupled to the chip, bivalent model. Background: In SPR one partner is held on a chip, and binding of the other changes the refractive index at the surface.
Sequence of soluble human GPVI-Fc (the extracellular domain of GPVI fused to Fc) (human) (Q9HCN6 other isoform, or with tags, fused parts or gaps): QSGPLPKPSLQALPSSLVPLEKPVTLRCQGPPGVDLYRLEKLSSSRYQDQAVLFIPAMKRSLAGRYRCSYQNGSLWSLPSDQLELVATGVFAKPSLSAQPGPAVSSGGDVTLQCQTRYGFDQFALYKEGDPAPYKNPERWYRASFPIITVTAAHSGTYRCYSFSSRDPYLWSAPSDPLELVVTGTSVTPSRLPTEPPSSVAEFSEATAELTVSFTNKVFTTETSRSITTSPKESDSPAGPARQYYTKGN

Sequence of human TANGO 268 (glycoprotein VI, GPVI), full length (human) (Q9HCN6 other isoform, or with tags, fused parts or gaps): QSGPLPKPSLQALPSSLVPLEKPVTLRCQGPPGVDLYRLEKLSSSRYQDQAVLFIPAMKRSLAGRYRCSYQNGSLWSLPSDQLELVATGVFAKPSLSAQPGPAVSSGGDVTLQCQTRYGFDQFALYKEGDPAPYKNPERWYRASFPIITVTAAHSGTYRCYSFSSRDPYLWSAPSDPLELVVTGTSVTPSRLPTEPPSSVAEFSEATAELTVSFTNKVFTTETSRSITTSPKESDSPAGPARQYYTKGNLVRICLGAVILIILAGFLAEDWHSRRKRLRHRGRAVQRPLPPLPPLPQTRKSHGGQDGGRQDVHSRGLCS

With “recombinant human soluble GPVI:Fc fusion protein (rhusGPVI:Fc) (from UniProt Q9HCN6 21-269)”, the concentration of rhusGPVI:Fc needed to inhibit collagen-induced activation, against that needed for Cvx with collagen type I worked out at 10 fold.

In the case of “mouse monoclonal antibody produced by hybridoma cell line 9012.2”, the % of Inhibition of convulxin binding of hrGPVI in assay [1] is 75%. In assay [2], this substance yielded a % of Inhibition of collagen binding of hrGPVI of 58%. In assay [3], this substance yielded a Human fluorescence intensity of 14 and a Human platelets % positive of 21%. Further, in assay [4], the Baboon fluorescence intensity came to 18 and the Baboon platelets % positive turned out to be 33.8%. Moreover, the pKd in assay [5] is 7.74.
